Measurements published in patent US20070099830.

Assays:
[1] = target: bovine recombinant glutamate dehydrogenase, P00366
Chain of bovine recombinant glutamate dehydrogenase, P00366 (P00366 58-558): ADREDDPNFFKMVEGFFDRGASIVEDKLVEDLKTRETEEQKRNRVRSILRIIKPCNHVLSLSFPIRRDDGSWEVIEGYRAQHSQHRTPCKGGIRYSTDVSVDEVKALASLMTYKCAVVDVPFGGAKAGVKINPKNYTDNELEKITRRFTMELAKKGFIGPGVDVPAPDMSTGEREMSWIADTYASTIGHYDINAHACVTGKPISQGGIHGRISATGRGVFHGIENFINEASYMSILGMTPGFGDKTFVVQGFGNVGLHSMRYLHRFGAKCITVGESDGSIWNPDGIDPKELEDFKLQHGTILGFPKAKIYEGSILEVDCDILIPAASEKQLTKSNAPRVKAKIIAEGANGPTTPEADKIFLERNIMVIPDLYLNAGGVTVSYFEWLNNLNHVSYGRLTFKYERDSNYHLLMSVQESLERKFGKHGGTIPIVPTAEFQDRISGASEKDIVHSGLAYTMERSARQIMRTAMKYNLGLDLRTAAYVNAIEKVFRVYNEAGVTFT

B1: human Sirt4 with a C-terminal FLAG (protein)
chain: IGLFVPASPPLDPEKVKELQRFITLSKRLLVMTGAGISTESGIPDYRSEKVGLYARTDRRPIQHGDFVRSAPIRQRYWARNFVGWPQFSSHQPNPAHWALSTWEKLGKLYWLVTQNVDALHTKAGSRRLTELHGCMDRVLCLDCGEQTPRGVLQERFQVLNPTWSAEAHGLAPDGDVFLSEEQVRSFQVPTCVQCGGHLKPDVVFFGDTVNPDKVDFVHKRVKEADSLLVVGSSLQVYSGYRFILTAWEKKLPIAILNIGPTRSDDLACLKLNSRCGELLPLIDPC
- glutamate dehydrogenase activity (disappearance of NADH, A340) after one hour with Sirt4 and NAD [1]: Sirt4, but not the buffer control, significantly reduced the enzymatic activity of glutamate dehydrogenase
- mass spectroscopy of histone 2A after incubation with Sirt4 and NAD (histone 2A protein): Sirt4 transferred an approximately 500 Dalton moiety to Histone 2A
